Tests used:
Format in all cases: biochemical, Plasmodium falciparum
pfTopI [1] = test: Cleavage-ligation assay with radio-labeled DNA substrates in absence or presence of camptothecin; conditions: 60 μM CPT, duplex OL62/OL63, 20 min at 37° C.
Description: Detection of PfTopI activity using radio-labeled DNA substrates: DNA cleavage reactions were carried out by incubating 20 nM duplex OL37/OL56 or OL62/OL63 with 500 fmol of pfTopI or hTopI in the absence or presence of 60 μM CPT for 20 min at 37° C. in 10 mM Tris (pH 7.5), 5 mM MgCl2, and 5 mM CaCl2 in a final volume of 20 μl. After the 20 min incubation, reactions were stopped with 0.5% (w/v) SDS. Samples were subjected to ethanol precipitation, resuspended in 10 μl of 1 mg/ml trypsin and incubated at 37° C. for 30 min. Reaction products were analyzed by denaturing polyacrylamide gel electrophoresis following standard procedures, and radioactive bands were visualized by PhosphorImaging.

pfTopI [2] = test: RCA-based biosensor (REEAD) circularization of oligonucleotide substrates by purified pfTopI
Description: As shown in FIG. 1A and FIG. 4, in contrast to its human counterpart, pfTopI is able to cleave close to DNA ends with high efficiency. […] To address this possibility, purified pfTopI was incubated with each of the substrates Su2-Su6 (FIG. 1B) and the products analysed using the RCA based detection system as schematically outlined in FIG. 1C. The sequence of the substrates Su4, Su5, and Su6 was modified to match the sequence that was cleaved with high efficiency in substrate XX.
Based on this, five different oligonucleotides with potential of being circularized specifically by pfTopI cleavage-ligation were designed. These oligonucleotides (PfTop1(S1-S5)) all folded into a hairpin structure containing a probe- and a primer-annealing sequence in the single-stranded loop and a potential pfTopI recognizable sequence at the end of the double-stranded stem region (FIG. 1b). […] To allow comparative quantification of signals generated in different reactions, a known concentration of control-circle with a unique probe-annealing sequence was added to the reaction mixtures before RCA and resulting RCPs visualized using a green-fluorescent probe. […]
(§1) The 5′-amine-conjugated primer was coupled to CodeLink Activated Slides (SurModics) according to the manufacturer's description. […] Quantification of pfTopI specific signals was performed as previously described^1.

pfTopI [3] = test: REEAD in nuclear extract from HEK293T cells with or without spike-in pfTopI; conditions: signals only with spike-in pfTopI
Description: The use of Su2 for detecting pfTopI activity in human cell extracts in the RCA-based biosensor setup was also verified. […] As a control for successful RCA and probe annealing a circularized control circle was added to each sample before annealing to the primer coated slide. […] As expected, comparative levels of green and blue spots corresponding to RCPs from […] and control circles, respectively, could be observed in both samples (FIG. 2A).
The specificity of pfTopI(S1) for pfTopI in crude biological samples was addressed using nuclear extract from human HEK293T cells with or without spike-in pfTopI as a model for Plasmodium infection. […] Consequently, green signals observed in FIG. 22b, right panel, originated from hTopI and pfTopI activity in combination where pfTopI(S1) and S(TopI) competed for reaction by pfTopI at the expense of sensitivity.
Human embryonic kidney HEK293T cells were cultured in Dulbecco's Modified Eagle Medium (GIBCO) supplemented with 10% fetal bovine serum (FBS) (GIBCO), 100 units/mL penicillin and […] streptomycin (Invitrogen). Cells were incubated in a humidified incubator (5% CO2/95% air atmosphere at 37° C.). […]
as §1

pfTopI [4] = test: REEAD with HRP-mediated colorimetric readout, purified pfTopI; conditions: purified pfTopI circularizing S1
From the text: To investigate if the Plasmodium-specific REEAD could be adapted to simple colorimetric readout, suitable for low-resource settings without compromising sensitivity, an additional enzymatic step was introduced to the assay by coupling streptavidin-fused HRP to biotinylated RCPs as described by Yan, J. et al. An on-nanoparticle rolling-circle amplification platform for ultrasensitive protein detection in biological fluids. Small 6, 2520-2525 (2010). HRP oxidizes colorless tetramethylbenzidine to a blue-colored form, detectable to the naked eye or by spectrophotometric measurements. This, of course, is at the expense of the possibility of multiplexing since RCPs originating from different circles cannot be distinguished. […] This, however, imposed the advantage of preventing competition between S(TopI) and pfTopI(S1) for pfTopI, as discussed above. The two readout formats were compared by reacting pfTopI(S1) with increasing dilutions of extracts from blood sample #2 followed by microscopic visualization of RCPs or by spectrophotometric measurement of HRP substrate conversion. As evident from FIG. 23 colorimetric readout increased sensitivity of REEAD by a factor two compared to microscopic readout. […]

CC[C@@]1(O)C(=O)OCc2c1cc1n(c2=O)Cc2cc3ccccc3nc2-1 [camptothecin]
effect on ligation product formation by pfTopI (pfTopI [1]): ligation product is only observed upon incubation of the substrate with pfTopI in the absence of camptothecin

B1: pfTopI(S1): hairpin oligonucleotide sensor circularized by pfTopI, SEQ ID NO: 8 (nucleic acid)
chain: TCTAGAAAGTATAGGAACTTCGAACGACTCAGAATGACTGTGAAGATCGCTTATCCTCAATGCACATGTTTGGCTCCCATTCTGAGTCGTTCGAAGTTCCTATACTTT
modifications: chemistry not fully specified
circularization efficiency by pfTopI, substrate signals relative to control circle signals (pfTopI [2]; purified pfTopI, compared among the tested substrates): the most efficient sensor of pfTopI
specificity for pfTopI in crude human cell extract (pfTopI [3]): specificity of pfTopI(S1) for pfTopI even on a background of human nucleus content
detection of pfTopI, spectrophotometric measurement of HRP reaction (pfTopI [4]; FIG. 27): 2 aM
detection of pfTopI, direct visual detection of HRP reaction (pfTopI [4]; data not shown): 200 aM

B2: S(TopI): self-folding oligonucleotide substrate for human topoisomerase I, SEQ ID NO: 25 (nucleic acid)
chain: AGAAAAATTTTTAAAAAAACTGTGAAGATCGCTTATTTTTTTAAAAATTTTTCTAAGTCTTTTAGATCCCTCAATGCTGCTGCTGTACTACGATCTAAAAGACTTAGA
modifications: listed as DNA, chemistry not fully specified
circularization (conversion to closed circles) by pfTopI (pfTopI [2]; purified recombinant pfTopI, RCA and fluorescent probe readout): circularizes S(TopI)

Source: US20150018228A1, “ENZYME DETECTION BY MICROFLUIDICS” (priority 2011, published 2015)
